From publication PMC9891163 (Drug Delivery, 2023)

Experiment: Aqueous dispersibility of the peptide-lipid conjugate
Assay type: physicochemical

In the case of “(Dipalmitoyl)lysine-KSS-(SG)5-ApoEdp [ApoEdp-SG-lipid]”, the Aqueous dispersibility is reported as “excellent aqueous dispersibility”.
